Experimental data published in the DeepSol protein solubility set.

Test: soluble on expression in E. coli; label from the status in PepcDB or PDB records

For “MVALFPSSPAEDLLAEGPCVMTGKGLHQLLLDRWGYSYGLQLRRTQGKIFLQIMWKYLEQASFPMDEGEYFSHLNEVASYLVALGAAEAIAQTIRETREKPRLGKAVSIPIELGARASEWFPDLEHHHHHH”, which “soluble on expression in E. coli” value is on record?
Its value is “soluble”.

Which “soluble on expression in E. coli” value does the source give for “MTKRKNASNAGSSPKKEKKSETFAALKSVKAEKRPAADSSDSEPEDFEEEQITHTEAEETRNEDNGQAIYEPDVMRPLIESFLEFLVQRQSETSTVHNMENKVAEWAETRRDDNIDAGLFVLDFRKYLKSAVKFKNLQMNDSCAAISTYLNSEKSLVEYKSMPDRPPTKIQLYIKKHQIMLKGIGGEPMKNAYKAMNADTEGAKELDELLREASLQYIPQLQEFLDTHPNLTEEQKRSIVNKMKMLNKKYNSKEISSTPKKRSSKKDPETAFSLFCRTKNDKYRDLSDEEREIKLQKKFEKLPAAQKDIYESLAISM” here?
The value was “soluble”.

With “MGSDKIHHHHHHMSILNLFRKNKNKNNIDFNEKSNKSKQTSNNTMTPSQEYNSISTHNVEVKNEINKVLNVSYNDTTNLYELEKQAREKSDALYDIHTNSINKFNPQNNILETDTKPLTSIEKSFLKYIIGENIYEPYIATYWTYEYNINYSYLISKFFNMDYLKISNYIEDLTKLTVSELKEILKSNNIKSTGKKAELIERIEKEISCKDLSNFFNSSNKYYALTDKGKELLKDVRKSVTKNTDLEDQCLELIYIDKYEEAYDLICKYESSKNIQRGININWENHKITPMKIESYKAIKELDINLKDTLLDNIIKSSYILCDMLGNNSKTSILVKRLAGEKIDNIEINNAINSINDVIYNHSTITYNANDSINNKNLHYMDIVKNNKSIPFEVNNKNYNFKINENEIYFFNILKIKMYENELKNNFVFDRMSDGAFNVFDTSDNFIGKVKLQGRKKWIMYMKNEFGSEHIYGELIHLIDGIDAWIKYSKEYLK” as the sequence, how does the “soluble on expression in E. coli” value read?
The value was “not soluble”.

Which “soluble on expression in E. coli” value does the source give for “MALINNRSKFSFFNKVRVLLKNILKPDESVEDVVDEHFRFTSSLSLDAPDGQIENLYQDEKDGKYHLTLFDNGLTGATGILPAAYTEWLIERKLRYNDDAPKAFMDMFDHRMYCLSYLAWQKMHLSGDENRRDNNVLNNVLLSLGGITPQTVSVTGLAYVAFYSQPVRSLAGLEQLLSLIHQIRVSINPFRGTFENTEPSEQGVLGNCLYTLGEGPVIGNVRWVVDSHFDVVLGPVDYRKAQELMPGKDSHYFIRQQIRSYIGDVLKFKIYVKIYPGNNDNQLNINNKLGFNLSLGSETENYKERCFCIF” here?
Its value is “not soluble”.

With “MAANSLPQDISDVELVHLARAAMKRAHCPYSKFPVGAALLTESGEIVQGCNVENASYGGTICAERSAIVSAVSQGYTKFRAIAVVTELSEPASPCGLCRQFLVEFGDYKVVVGTASNNKILITSTRALLPFAFTPESLDTFEQEKASEAKGLKQDDATEHNVTVVS” as the sequence, how does the “soluble on expression in E. coli” value read?
The value was “not soluble”.

For “MAARHHAFILAGTGSGCGKTTVTLGLLRLLQKRALRVQPFKVGPDYLDTGWHTAICGVASRNLDSFMLPPPVLNALFCEQMRQADIAVIEGVMGLYDGYGVDPNYCSTAAMAKQLGCPVILLVDGKAVSTSLAATVMGFQHFDPTLNLAGVIVNRVTSDAHYQLLKNAIEHYCSLPVLGYVPPCDGVALPERHLGLITARESLVNQQSWHDFAATLEQTVDVDALLSLSVLSALPAGMWPERPDNTAGAGLTLALADDEAFNFYYPDNIDLLERAGVNIVRFSPLHDRALPDCQMIWLGGGYPELYAADLAANTVMLKHLRAAHQRGVAIYAECGGLMYLGSTLEDSGGEIHQMANIIPGHSKMGKRLTRFGYCEAQAMQPTLLAAPGEIVRGHEFHYSDFIPETPAVMACRKVRDGRVLQEWTGGWQTGNTFASYLHVHFAQRPEMLQHWLAAARRVL”, which “soluble on expression in E. coli” value is on record?
The value was “not soluble”.

With “MGKEALLNLYRIEYRPKDTTFTVFKPTHEIQKEKLNKVRWRVFLQTGLPTFRREDEFWCAGKVEKDTLYLTLSNGEIVELKRVGEEEFRGFQNERECQELFRDFLTKTKVKDKFISDFYKKFRDKITVQGKNRKIALIPEVNEKVLKSEEGYFLLHLDLKFRIQPFETLQTLLERNDFNPKRIRVKPIGIDFVGRVQDVFKAKEKGEEFFRLCMERSTHKSSKKAWEELLKNRELREKAFLVVLEKGYTYPATILKPVLTYENLEDEERNEVADIVRMEPGKRLNLIRYILRRYVKALRDYGWYISPEEERAKGKLNFKDTVLDAKGKNTKVITNLRKFLELCRPFVKKDVLSVEIISVSVYKKLEWRKEEFLKELINFLKNKGIKLKIKGKSLILAQTREEAKEKLIPVINKIKDVDLVIVFLEEYPKVDPYKSFLLYDFVKRELLKKMIPSQVILNRTLKNENLKFVLLNVAEQVLAKTGNIPYKLKEIEGKVDAFVGIDISRITRDGKTVNAVAFTKIFNSKGELVRYYLTSYPAFGEKLTEKAIGDVFSLLEKLGFKKGSKIVVHRDGRLYRDEVAAFKKYGELYGYSLELLEIIKRNNPRFFSNEKFIKGYFYKLSEDSVILATYNQVYEGTHQPIKVRKVYGELPVEVLCSQILSLTLMNYSSFQPIKLPATVHYSDKITKLMLRGIEPIKKEGDIMYWL” as the sequence, how does the “soluble on expression in E. coli” value read?
Its value is “soluble”.

Which “soluble on expression in E. coli” value does the source give for “MAVSLSKGGNVSLTKEAPGLTAVTVGLGWDVRTTTGTDFDLDASAIAVNPTGKVYSDAHFVFFNNKQTPDQTIVHTGDNRTGEGAGDDEAINVNLAGLPADVDKIVFPVSIYDAENRSQNFGQVRNAYIRIVNQAGGAEIARYDLSEDAATETAMVFGELYRNGAEWKFRAVGQGYASGLVGIAQDFGVNV” here?
Its value is “not soluble”.

For “GMNVDFINPFLDSLLNVLKTMANMELKPGKPNLKKDNLAKGDVSGLIGMVGPQTKGSLSITFEETLILEIMNKMLGEKPESIDEEVTDLVGELTNMVTGGAKNLLSDKGYEFDMATPIVVSGKNHTIAHKSDGQKIIMPFSSIYGTAYIEICFEG”, which “soluble on expression in E. coli” value is on record?
The value was “soluble”.

Which “soluble on expression in E. coli” value does the source give for “MNHVSHTGSYYAASANDKVQRSKLTEDITADICVVGSGFTGLSSALHLAEKGFKVVVVEGSRIGFGASGRNGGQLVNSYSRDMDFIERNYGKHVSTEMGQMAFEGSRIIKRLINDYDIKCDLRPGGVFAACNSKQLDEMAEKQKLWAKHGYHETELLSASDIQNHVGTERYVGGLLDKAGGHIHPLNLALGEAAAFEKLGGIIYEDSIVVDIVHGKKAVIKTDSGSVTADFVVVAGNAYLEGLLPKQQKQSMPCGTQIITTEVLPEAMQKQLLPTDVCVEDCNYLLDYFRLSGDGRLIYGGGTTYGAREPSKIESIIIPKMLKTFPQLKDVKIDYAWTGNFLLTLMRLPQFGRINDNVYYAQGYSGHGVTSTHLAGKVIADAITGQAERFDVFAGLPQYPFPGGRLFKTPYTAMGAWYYQMRDKLGILEHHHHHH” here?
The value was “soluble”.

With “MGSDKIHHHHHHMSKNNNPVEQLLKEKPYILLDGALATELERHGRNLDDPLWSARVLLEEPEQIHRVHANYFKIGADCAITSSYQASVAGFSSRGIKEEEAIELMKQTVYLAQQARAETGPAADHALIAGSIGPYGAYLSDGSEYIGHYGVDDAQLEAFHRPRLEALIAAGADVLAFETIPSLQEAKMLFRLLEEFPEQSAWLAFSLRDATHISEGTPLSECIEALGDHPQLAAIGANCFPASIATEFITTLKQLTDVPIIVYPNSGEQYDPVSKTWSGETVRTAFEDIAPEWYAAGARLIGGCCRTTPEQIGEIRKIVHAQ” as the sequence, how does the “soluble on expression in E. coli” value read?
Its value is “not soluble”.

For “EVQLQQSGAELVRPGASVKLSCTASGFNIKDDFMHWVKQRPEQGLEWIGRIDPANDNTKYAPKFQDKATIIADTSSNTAYLQLSSLTSEDTAVYYCARREVYSYYSPLDVWGAGTTVTVPSGS”, which “soluble on expression in E. coli” value is on record?
The value was “soluble”.

Which “soluble on expression in E. coli” value does the source give for “MGSDKIHHHHHHMNLLEVKSLKARFKRGGFALESVNLTLKKGECVSIVGESGSGKSFLAQLIVRLFPQGSVEVEEGEILFLGENLLDFSQERLEGVRGSEIGFVFQEPLISLNPLHTIEKQLAEAILLHRSLSREELKREIGALYASVGLEALKGRAKIYPHELSGGQRQRVMIAMALANSPKLLIADEPTTALDVSVQKQILDLLFRLKEERGVSLLLISHDLGVVRHYADKVYVMKGGKVVESASKEELFAHPKHPYTQALLSSLHLPLKESPPSRGEILLEAENLDLSFVLKKDWLGRPKEYLRALSSISLRLREGENLGIVGESGSGKSTLALALCKLLSFEGRLRMGHEEMAKMEESRFRPFRSMIQIVFQDPYGSLSPRLSIEEILREGLEVHFPAQKESFERRIIEALEGVGLESSYRYRYPNELSGGQRQRVAIARALILRPKILILDEPTSALDRSIEHQVVALLLELQKRYNLTYLCISHDLRVIGALSDRVAVMKGGRLIEEGETSLILQSPTHPYTQELIGSLLL” here?
The value was “not soluble”.

For “MAHVAFNLLHLPAKTLRNVFQLMSHSELFIFSFASICAKRLVKSMNFEMLELDLVYSRPCKLKISFGEHEEFIIEFDEFGTLSKQEPSDAFVFLIAYKLDIRDCINHVLEVYKISKLHTLKVIGAINNPQNLLKIIGKLDLKVLWIFFNFSENSTTISVYREILNHLGARCDVRSLRRGFYDKEPQKSFFLLRLSLSYALSQEPHSRPTATLAARRLKRRQDTQPLDATTSVLMLRSCRTVGRGTSLPTHPPFSFVIAPHYYSCTCSDIQGEPDKLQ”, which “soluble on expression in E. coli” value is on record?
The value was “not soluble”.

Which “soluble on expression in E. coli” value does the source give for “MAVVRRAVAARGLQMIAKPLTVVPGFDVWPGLLDISAQRALVEAVLAGAEQAPFSNYRTAYGKPMSVAMTALGSLGWTSDARGYRYVDRHPETGRPWPDMPPALLDLWTVLGDPETPPDSCLVNLYRDGARMGLHQDRDEADPRFPVLSISLGDTAVFRIGGVNRKDPTRSLRLASGDVCRLLGPARLAFHGVDRILPGSSSLVPGGGRINLTLRRARTALEHHHHHH” here?
The value was “not soluble”.

Which “soluble on expression in E. coli” value does the source give for “CVIFPVEIDVSQTIIRDCQVDKQTRELVYINKIMNTQLTKPVLMMFNISGPIRSVTRKNNNLRDRIKSKVDEQFDQLERDYSDQMDGFHDSIKYFKDEHYSVSCQNGSVLKSKFAKILKSHDYTDKKSIEAYEKYCLPKLVDERNDYYVAVCVLKPGFENGSNQVLSFEYNPIGNKVIVPFAHEINDTGLYEYDVVAYVDSVQFDGEQFEEFVQSLILPSSFKNSEKVLYYNEASKNKSMIYKALEFTTESSWGKSEKYNWKIFCNGFIYDKKSKVLYVKLHNVTSALNKNVILNTIKA” here?
Its value is “soluble”.

With “MEKKIGKLSIRVLLNTHRRNDCEIYPLIIRVVYHRRKSEYSLGWKIHTSNFSADRERVVYSSTGNLKRKDLGLINDAISQERERLLKIFAFLQQNMPGFSLSQLMDKYRMERNLRYVDAFIVREIERLRQEGRSGTAGLYLSGLYSLRRFLRGQKITFRELTYCFLTDYIHFLRMRGISENTVNMYIRNLRAVYNKAQKQGINMGCESPFRELKLQTQETAKRALCKHDIARIVSVDLSSEPLLDRARDLFMFSFYARGMPFVDIVFLKHDSIINGIIYYERNKTGQRMQVRVIPPLAALIEKYRSSYPYVLPYITSFSDRTSYMQYRYALGNVNRLLKRLGRRLHLPLVLTTYVARHSWATIAKEEGFSIASISEGLGHTSEATTQIYLQSFNSEVIDKINEQVVASIGRHI” as the sequence, how does the “soluble on expression in E. coli” value read?
The value was “not soluble”.

For “MNNLMVIDGIEVRRDAYGRYSLNDLHRAAGSLDKHKPAFWLRNEQTERLISELQICNSVNIEPVNVIRGGNNQGTYVCKELVYAYAMWISPSFHLKVIRTFDMV”, which “soluble on expression in E. coli” value is on record?
The value was “not soluble”.

With “MAEMGSKGVTAGKIASNVQKKLTRAQEKVLQKLGKADETKDEQFEQCVQNFNKQLTEGTRLQKDLRTYLASVKAMHEASKKLNECLQEVYEPDWPGRDEANKIAENNDLLWMDYHQKLVDQALLTMDTYLGQFPDIKSRIAKRGRKLVDYDSARHHYESLQTAKKKDEAKIAKAEEELIKAQKVFEEMNVDLQEELPSLWNSRVGFYVNTFQSIAGLEENFHKEMSKLNQNLNDVLVGLEKQHGSNTFTVKAQPSDNAPAKGNKSPSPPDGSPAATPEIRVNHEPEPAGGATPGATLPKSPSQSSLPAVVVETFPATVNGTVEGGSGAGRLDLPPGFMFKVQAQHDYTATDTDELQLKAGDVVLVIPFQNPEEQDEGWLMGVKESDWNQHKELEKCRGVFPENFTERVP” as the sequence, how does the “soluble on expression in E. coli” value read?
Its value is “soluble”.
